Results taken from article PMC3688735.

Biological target: mKate
Assay: SEC; gel filtration on a 1x90 cm Econo-column packed with Sephacryl-S200, equilibrated with 25 mM Tris-HCl pH 7.5, 150 mM NaCl; self-association of the purified fluorescent protein

stoichiometry N: 2
Substance: mKate
